As a reminder, the Kd is the concentration at which binding is half-saturated.

The source of these data is patent publication USRE47770 (dated 2019).

Numbering of substitutions follows the chain as printed.

The target in experiment [1] is T1, EpCAM on CHO (dhfr-) cells transfected with EpCAM cDNA (UniProt P16422 24-314, limits assumed).
T1 construct: whole, on cells; also called EP-CAM homotypic adhesion molecule; EpCAM-transfected cells
T1 sequence (looked up): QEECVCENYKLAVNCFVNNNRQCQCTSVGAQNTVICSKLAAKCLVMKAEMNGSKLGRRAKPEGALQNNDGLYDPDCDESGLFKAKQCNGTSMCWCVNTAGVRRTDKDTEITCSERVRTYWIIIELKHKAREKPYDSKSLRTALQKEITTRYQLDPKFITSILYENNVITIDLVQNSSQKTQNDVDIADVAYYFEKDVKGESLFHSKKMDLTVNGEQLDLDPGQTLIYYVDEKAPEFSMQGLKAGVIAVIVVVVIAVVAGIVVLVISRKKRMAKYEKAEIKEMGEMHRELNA
The experiment can be described thus: FACS on CHO cells transfected with EpCAM, CD46 or CD38.

In experiment [2] the target is T2, CD38 on CHO (dhfr-) cells transfected with CD38 cDNA (UniProt P28907 1-300, limits assumed).
T2 construct: whole, on cells; also called control antigen CD38; negative control (CD38)
The description is as above.

The target of experiment [3] is T3, Affinity-purified human CD46 from LS174T cells (human, UniProt P15529 35-392, limits assumed).
T3 construct: Coupled (640 RU) to CM5 chips for the BIACORE work; also called purified CD46; membrane cofactor protein CD46
T3 sequence (looked up): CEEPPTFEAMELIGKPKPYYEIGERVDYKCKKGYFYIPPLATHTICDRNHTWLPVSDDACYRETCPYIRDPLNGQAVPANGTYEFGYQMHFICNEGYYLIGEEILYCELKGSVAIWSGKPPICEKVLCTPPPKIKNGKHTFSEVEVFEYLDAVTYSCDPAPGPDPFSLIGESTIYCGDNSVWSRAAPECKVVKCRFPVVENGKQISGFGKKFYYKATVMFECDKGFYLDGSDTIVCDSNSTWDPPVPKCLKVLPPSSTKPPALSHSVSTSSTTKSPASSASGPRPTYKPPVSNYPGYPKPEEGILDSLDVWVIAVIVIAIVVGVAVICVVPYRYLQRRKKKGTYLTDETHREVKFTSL
The experiment can be described thus: SPR (BIACORE 3000, 37° C.), purified CD46 coupled to CM5 chip, IgG in solution.

Experiment [4] deals with T4, CD46 on cells (human colon carcinoma LS174T cells; CHO (dhfr-) cells transfected with CD46 cDNA) (human, UniProt P15529 35-392).
T4 construct: whole, on cells; also called CD46 transfectants; cofactor protein CD46
T4 sequence (looked up): T3 sequence (looked up)
The experiment can be described thus: FACS on CHO cells transfected with EpCAM, CD46 or CD38.

B1: 02-237 IgG (antibody, V domains shown)
VH: QVQLVQSGAEVKKPGASVKVSCKASGYTFTSYGISWVRQAPGQGLEWMGWISAYNGNTNYAQKLQGRVTMTTDTSTSTAYMELRSLRSDDTAVYYCARGFPRTSFDSWGQGTLVTVSS
VL: not shown
modifications: amino acid residue 1 is a pyroglutamic acid (remark to Table III)
notes: Tested as human IgG1 (constant domains from pCRU-K01); The N-terminus of its light chain differs slightly from that of UBS54/K53 because of the cloning strategy
Regarding B1, the binding result in experiment [1] and in experiment [2] was “no binding (tested: 20 µg IgG1/ml)” throughout. This molecule also registered a Kd in experiment [3] of 22 nM.

B2: K53 IgG (antibody, V domains shown)
VH: B1 VH with F100M, P101M, T103G, S104V, S107Y, S118T
VL: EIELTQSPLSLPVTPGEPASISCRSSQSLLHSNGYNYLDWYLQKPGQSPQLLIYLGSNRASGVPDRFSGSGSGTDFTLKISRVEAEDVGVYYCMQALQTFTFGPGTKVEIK
modifications: amino acid residue 1 is a pyroglutamic acid (remark to Table III)
notes: also called clone K53; anti-CD46 clone K53
On to B2, for which the binding result in experiment [1] and in experiment [2] was “no binding (tested: 20 µg IgG1/ml)” in each case. Also, in experiment [3], binding was put at a Kd of 910 nM.

B3: UBS54 IgG (antibody, V domains shown)
VH: QVQLVQSGAEVKKPGSSVRVSCKASGGTFSSYAISWVRQAPGQGLEWMGGIIPIFGTANYAQKFQGRVTITADESTSTAYMELSSLRSEDTAVYYCARDPFLHYWGQGTLVTVST
VL: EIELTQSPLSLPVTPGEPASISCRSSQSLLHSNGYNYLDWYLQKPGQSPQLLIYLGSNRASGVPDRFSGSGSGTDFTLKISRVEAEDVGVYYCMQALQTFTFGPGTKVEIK
modifications: amino acid residue 1 is a pyroglutamic acid (remark to Table III)
notes: Tested as full human IgG1 with kappa light chain; also called anti-EpCAM clone UBS54; encoded by pUBS3000Neo
Regarding B3, the binding result in experiment [4] and in experiment [2] was “no binding (tested: 20 µg IgG1/ml)” in each case.
